Values joined by “and” are separate entries in the source; they are usually repeats but may differ in a detail not shown here. Equal values may be shown once.
B8: vimentinROD, wild-type (residues T99-I249, coils 1A and 1B) (domain or fragment)
chain: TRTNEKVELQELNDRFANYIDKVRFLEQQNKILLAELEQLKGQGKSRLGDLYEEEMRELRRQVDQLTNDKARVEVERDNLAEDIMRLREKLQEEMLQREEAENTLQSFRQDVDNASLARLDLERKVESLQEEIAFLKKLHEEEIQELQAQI
modifications: NT647 fluorescent dye (Monolith NT His-Tag Labelling Kit RED-tris-NTA)
notes: human vimentin, residues T99-I249; Non-cleavable His tag

What was measured:
Details in all cases: both partners purified
[1] = target: B8; test: MST; as a1 but 10 mM NaCl: 50 nM NT647-labelled vimentinROD, periplakin linker titrated; 25 °C; one-ligand binding model
[2] = target: B8; test: MST; as a1 but 50 mM NaCl: 50 nM NT647-labelled vimentinROD, periplakin linker titrated; 25 °C; one-ligand binding model
[3] = target: B8; test: MST; 50 nM NT647-labelled vimentinROD, linker titrated 780 nM to 800 μM; 150 mM NaCl, 20 mM HEPES pH 7.5, 0.015% Tween 20; 25 °C; MST-on time 5 s; one-ligand binding model; single experiments or merged data sets
[4] = target: T1, vimentinROD E172K (human, UniProt P08670 99-249, E172K, NT647 fluorescent dye (Monolith NT His-Tag Labelling Kit RED-tris-NTA)); test: as above
T1 construct: human vimentin, residues T99-I249

[5] = target: T2, vimentinROD E180K (human, UniProt P08670 99-249, E180K, NT647 fluorescent dye (Monolith NT His-Tag Labelling Kit RED-tris-NTA)); test: as above
T2 construct: human vimentin, residues T99-I249

[6] = target: T3, vimentin^ROD (residues T99–I249), wild-type (human, UniProt P08670 99-249, NT647 fluorescent dye (Monolith NT His-Tag Labelling Kit RED-tris-NTA)); test: MST; as the standard MST assay (50 nM labelled vimentin^ROD, linker titrated) but in 10 mM NaCl
T3 construct: vimentin, human, coils 1A and 1B of the central rod domain, residues T99-I249; Non-cleavable His tag; also called wild-type vimentin^ROD

[7] = target: T3, vimentin^ROD (residues T99–I249), …; test: MST; 50 nM NT647-labelled vimentin^ROD, linker titrated 780 nM to 800 uM; 150 mM NaCl, 20 mM HEPES pH 7.5, 0.015% Tween 20; 25 C; one-site binding model
[8] = target: T4, vimentin^ROD (residues T99–I249) D162K (human, UniProt P08670 99-249, D162K, NT647 fluorescent dye (Monolith NT His-Tag Labelling Kit RED-tris-NTA)); test: as above
T4 construct: vimentin, human, coils 1A and 1B of the central rod domain, residues T99-I249

[9] = target: T5, vimentin^ROD (residues T99–I249) E172K (human, UniProt P08670 99-249, E172K, NT647 fluorescent dye (Monolith NT His-Tag Labelling Kit RED-tris-NTA)); test: as above
T5 construct: vimentin, human, coils 1A and 1B of the central rod domain, residues T99-I249

[10] = target: T6, vimentin^ROD (residues T99–I249) E180K (human, UniProt P08670 99-249, E180K, NT647 fluorescent dye (Monolith NT His-Tag Labelling Kit RED-tris-NTA)); test: as above
T6 construct: vimentin, human, coils 1A and 1B of the central rod domain, residues T99-I249

[11] = target: T7, vimentin^ROD (residues T99–I249) E229K (human, UniProt P08670 99-249, E229K, NT647 fluorescent dye (Monolith NT His-Tag Labelling Kit RED-tris-NTA)); test: as above
T7 construct: vimentin, human, coils 1A and 1B of the central rod domain, residues T99-I249

[12] = target: T8, vimentin^ROD (residues T99–I249) D176K (human, UniProt P08670 99-249, D176K, NT647 fluorescent dye (Monolith NT His-Tag Labelling Kit RED-tris-NTA)); test: as above
T8 construct: vimentin, human, coils 1A and 1B of the central rod domain, residues T99-I249; also called D176K vimentin^ROD; vimentin mutant D176K

[13] = target: T9, periplakin linker domain R1655E/R1656E (human, UniProt O60437 1646-1756, R1655E | R1656E); test: MST; 50 nM NT647-labelled vimentinROD, linker titrated 780 nM to 800 μM; 150 mM NaCl, 20 mM HEPES pH 7.5, 0.015% Tween 20; 25 °C; MST-on time 5 s; one-ligand binding model; single experiments or merged data sets
T9 construct: human periplakin linker domain, residues K1646-K1756
T9 sequence (looked up): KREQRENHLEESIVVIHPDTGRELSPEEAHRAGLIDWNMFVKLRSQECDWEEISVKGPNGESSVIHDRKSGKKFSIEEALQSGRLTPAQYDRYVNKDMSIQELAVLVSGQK

[14] = target: T10, periplakin linker domain K1687E/R1689E (human, UniProt O60437 1646-1756, K1687E | R1689E); test: as above
T10 construct: human periplakin linker domain, residues K1646-K1756
T10 sequence (looked up): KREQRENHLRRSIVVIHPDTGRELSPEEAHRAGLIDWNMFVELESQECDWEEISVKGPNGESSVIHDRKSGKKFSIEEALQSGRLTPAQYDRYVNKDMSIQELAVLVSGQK

[15] = target: T11, periplakin linker domain R1713E/K1714E (human, UniProt O60437 1646-1756, R1713E | K1714E); test: as above
T11 construct: human periplakin linker domain, residues K1646-K1756
T11 sequence (looked up): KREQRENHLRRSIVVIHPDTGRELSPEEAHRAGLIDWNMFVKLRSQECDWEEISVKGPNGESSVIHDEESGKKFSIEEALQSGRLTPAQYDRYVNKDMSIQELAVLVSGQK

[16] = target: T12, periplakin linker domain R1737E/K1741E (human, UniProt O60437 1646-1756, R1737E | K1741E); test: as above
T12 construct: human periplakin linker domain, residues K1646-K1756
T12 sequence (looked up): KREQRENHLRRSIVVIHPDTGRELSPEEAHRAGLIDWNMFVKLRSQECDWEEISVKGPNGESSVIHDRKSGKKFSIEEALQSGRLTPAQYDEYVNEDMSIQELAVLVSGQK

[17] = target: T13, periplakin linker domain R1713E (human, UniProt O60437 1646-1756, R1713E); test: as above
T13 construct: human periplakin linker domain, residues K1646-K1756; also called Periplakin R1713E
T13 sequence (looked up): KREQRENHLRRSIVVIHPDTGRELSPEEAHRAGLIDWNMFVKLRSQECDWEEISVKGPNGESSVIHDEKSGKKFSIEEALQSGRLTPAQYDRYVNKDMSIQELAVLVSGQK

T1 sequence (P08670 99-249 E172K): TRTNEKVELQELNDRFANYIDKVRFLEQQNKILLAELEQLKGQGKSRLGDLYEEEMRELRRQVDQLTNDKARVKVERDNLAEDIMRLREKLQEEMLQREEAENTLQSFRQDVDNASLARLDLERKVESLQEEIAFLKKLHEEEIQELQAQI
T3 sequence (P08670 99-249): as the sequence (P08670 99-249 E172K) above, with K74E counted along it
T2 sequence (P08670 99-249 E180K): as the sequence (P08670 99-249 E172K) above, with K74E, E82K counted along it
T5 sequence (P08670 99-249 E172K): as the sequence (P08670 99-249 E172K) above
T8 sequence (P08670 99-249 D176K): as the sequence (P08670 99-249 E172K) above, with K74E, D78K counted along it
T7 sequence (P08670 99-249 E229K): as the sequence (P08670 99-249 E172K) above, with K74E, E131K counted along it
T6 sequence (P08670 99-249 E180K): as the sequence (P08670 99-249 E172K) above, with K74E, E82K counted along it
T4 sequence (P08670 99-249 D162K): as the sequence (P08670 99-249 E172K) above, with D64K, K74E counted along it

B1: periplakin linker domain, wild-type (residues K1646-K1756) (domain or fragment, human)
chain: KREQRENHLRRSIVVIHPDTGRELSPEEAHRAGLIDWNMFVKLRSQECDWEEISVKGPNGESSVIHDRKSGKKFSIEEALQSGRLTPAQYDRYVNKDMSIQELAVLVSGQK
notes: human periplakin linker domain, residues K1646-K1756; also called Periplakin Linker Wild-type
In the case of B1, the Kd [1] is reported as 31 µM and 32 µM and 30.2 µM, the Kd [2] is reported as 59 µM and 69 µM and 71 µM and 66 µM and the Kd [3] is reported as 59 µM and 66 µM and 70 µM and 85 µM. The Kd [4] was 26 µM and 24 µM and 27 µM and 29 µM and the Kd [5] was 8 µM and 4 µM and 3 µM and 5.7 µM.

B2: periplakin linker domain (K1646–K1756), wild-type (domain or fragment, human, UniProt O60437 1646-1756, looked up)
chain: KREQRENHLRRSIVVIHPDTGRELSPEEAHRAGLIDWNMFVKLRSQECDWEEISVKGPNGESSVIHDRKSGKKFSIEEALQSGRLTPAQYDRYVNKDMSIQELAVLVSGQK
notes: periplakin linker domain, human, residues K1646-K1756; Vector pGEX-6P-1; also called wild-type periplakin linker; WT
In the case of B2, the Kd [6] is reported as 31 ± 2 µM, the Kd [7] is reported as 70.5 ± 3.8 µM and the Kd [8] is reported as 68 ± 4 µM. It also gave a Kd [9] of 27 ± 4 µM, a Kd [10] of 6 ± 2 µM and a Kd [11] of 16 ± 2 µM.

B3: periplakin linker domain (K1646–K1756) R1655E/R1656E (domain or fragment, human, UniProt O60437 1646-1756, looked up)
chain: KREQRENHLEESIVVIHPDTGRELSPEEAHRAGLIDWNMFVKLRSQECDWEEISVKGPNGESSVIHDRKSGKKFSIEEALQSGRLTPAQYDRYVNKDMSIQELAVLVSGQK
notes: periplakin linker domain, human, residues K1646-K1756
For B3, the Kd [7] was 380 ± 51 µM.

B4: periplakin linker domain (K1646–K1756) R1713E (domain or fragment, human, UniProt O60437 1646-1756, looked up)
chain: KREQRENHLRRSIVVIHPDTGRELSPEEAHRAGLIDWNMFVKLRSQECDWEEISVKGPNGESSVIHDEKSGKKFSIEEALQSGRLTPAQYDRYVNKDMSIQELAVLVSGQK
notes: periplakin linker domain, human, residues K1646-K1756; also called periplakin mutant R1713E; periplakin linker mutant R1713E
In the case of B4, the Kd [7] is reported as 200 ± 29 µM and the Kd [12] is reported as 23 ± 4 µM.

B5: periplakin linker domain (K1646–K1756) K1687E/R1689E (domain or fragment, human, UniProt O60437 1646-1756, looked up)
chain: KREQRENHLRRSIVVIHPDTGRELSPEEAHRAGLIDWNMFVELESQECDWEEISVKGPNGESSVIHDRKSGKKFSIEEALQSGRLTPAQYDRYVNKDMSIQELAVLVSGQK
notes: as for B3
Binder B5 has a Kd [7] of 300 ± 54 µM.

B6: periplakin linker domain (K1646–K1756) R1737E/K1741E (domain or fragment, human, UniProt O60437 1646-1756, looked up)
chain: KREQRENHLRRSIVVIHPDTGRELSPEEAHRAGLIDWNMFVKLRSQECDWEEISVKGPNGESSVIHDRKSGKKFSIEEALQSGRLTPAQYDEYVNEDMSIQELAVLVSGQK
notes: periplakin linker domain, human, residues K1646-K1756; also called control double mutant
Binder B6 has a Kd [7] of 48 ± 11 µM.

B7: periplakin linker domain (K1646–K1756) R1713E/K1714E (domain or fragment, human, UniProt O60437 1646-1756, looked up)
chain: KREQRENHLRRSIVVIHPDTGRELSPEEAHRAGLIDWNMFVKLRSQECDWEEISVKGPNGESSVIHDEESGKKFSIEEALQSGRLTPAQYDRYVNKDMSIQELAVLVSGQK
notes: as for B3
Work on B7 yielded a Kd [7] of 135 ± 30 µM.

With B8 the Kd [13] was 351 µM and 382 µM and 444 µM, the Kd [14] was 312 µM and 306 µM and 273 µM and the Kd [15] was 143 µM and 145 µM and 123 µM. The Kd [16] was 57 µM and 43 µM and 29 µM and 47.9 µM and the Kd [17] was 210 µM and 160 µM and 240 µM.

B9: desmoplakin linker domain (Q2454–N2565) E2495K/C2497R (domain or fragment, human, UniProt P15924 2454-2565, looked up)
chain: QTSQKNTLRKRRVVIVDPETNKEMSVQEAYKKGLIDYETFKKLREQECEWEEITITGSDGSTRVVLVDRKTGSQYDIQDAIDKGLVDRKFFDQYRSGSLSLTQFADMISLKN
notes: desmoplakin linker domain, human, residues Q2454-N2565
B9 was tested, and the Kd [7] was 600 ± 70 µM.

— PMC7035337, “Binding of the periplakin linker requires vimentin acidic residues D176 and E187” (Communications Biology, 2020)
